Results taken from US20040146507A1 (Genentech, published 2004).
Where “and” joins values, the source holds several entries; their conditions need not be identical. Identical values can stand only once.

Columns and labels:
[1] = molecular target: T1, human CD11a (human, UniProt P20701 26-1170); assay: FACScan, Jurkat cells
T1 construct: whole, on cells; On Jurkat T-cells or human peripheral blood mononuclear cells, as part of LFA-1; also called CD11a on Jurkat cells; alpha subunit of LFA-1
Method in brief: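 Flow-cytometric binding to 10⁶ Jurkat T-cells with serially diluted humanized antibodies (including CDR alanine-scan mutants of HuIgG1), 45 min at 4 °C in PBS-0.1% BSA-10 mM sodium azide. Detected with fluorescein anti-human F(ab′)₂, 45 min at 4 °C; 8×10³ scatter-gated live cells acquired.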

[2] = molecular target: T1, human CD11a; assay: cell-based or functional assay
[3] = molecular target: T2, rhesus CD11a (rhesus, UniProt H9Z8N3 26-1169); assay: binding to rhesus CD11a compared with human CD11a
T2 construct: whole, on cells; On rhesus peripheral blood lymphocytes or leukocytes; also called rhCD11a
T2 sequence: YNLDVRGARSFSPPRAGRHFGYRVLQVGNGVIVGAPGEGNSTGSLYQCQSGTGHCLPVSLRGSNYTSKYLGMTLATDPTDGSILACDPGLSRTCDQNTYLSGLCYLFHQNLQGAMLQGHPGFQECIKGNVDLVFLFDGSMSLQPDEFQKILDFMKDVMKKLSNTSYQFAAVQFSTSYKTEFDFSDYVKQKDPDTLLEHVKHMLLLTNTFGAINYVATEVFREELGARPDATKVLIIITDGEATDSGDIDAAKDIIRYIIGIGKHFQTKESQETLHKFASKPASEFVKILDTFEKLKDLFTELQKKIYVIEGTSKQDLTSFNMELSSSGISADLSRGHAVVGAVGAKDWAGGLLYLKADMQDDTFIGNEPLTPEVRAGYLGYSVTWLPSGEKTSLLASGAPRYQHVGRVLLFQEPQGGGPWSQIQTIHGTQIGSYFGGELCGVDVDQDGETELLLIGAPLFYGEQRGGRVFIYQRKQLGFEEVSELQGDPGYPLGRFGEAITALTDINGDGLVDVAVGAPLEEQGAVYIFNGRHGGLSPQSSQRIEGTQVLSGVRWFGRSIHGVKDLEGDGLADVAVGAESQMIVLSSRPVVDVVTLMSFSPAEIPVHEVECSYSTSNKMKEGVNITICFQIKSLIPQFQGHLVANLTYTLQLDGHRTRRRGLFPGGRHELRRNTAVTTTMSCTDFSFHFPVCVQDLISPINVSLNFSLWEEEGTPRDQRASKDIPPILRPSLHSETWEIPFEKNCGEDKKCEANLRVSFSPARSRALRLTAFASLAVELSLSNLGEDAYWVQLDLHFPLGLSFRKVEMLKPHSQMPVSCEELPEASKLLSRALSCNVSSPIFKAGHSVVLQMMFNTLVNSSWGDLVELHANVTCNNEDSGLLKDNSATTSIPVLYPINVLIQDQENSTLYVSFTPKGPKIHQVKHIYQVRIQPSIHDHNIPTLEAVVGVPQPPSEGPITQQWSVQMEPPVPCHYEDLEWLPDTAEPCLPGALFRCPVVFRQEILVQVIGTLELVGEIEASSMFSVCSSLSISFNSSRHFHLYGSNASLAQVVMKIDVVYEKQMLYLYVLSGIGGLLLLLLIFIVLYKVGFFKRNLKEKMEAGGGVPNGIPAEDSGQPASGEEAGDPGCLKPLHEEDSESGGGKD

[4] = molecular target: T2, rhesus CD11a; assay: rhesus PBL binding
[5] = molecular target: T1, human CD11a; assay: saturation binding, human lymphocytes, donor 2; Kd(app)
Method: (§1) Radiolabeled antibodies were prepared using Iodo-Gen (Pierce, Rockford, Ill.) according to the manufacturer's instructions. 50 μg of antibody and 1 mCi¹²⁵I (DuPont, Wilmington, Del.) were added to each tube and incubated for 15 min at 25° C. Radiolabeled proteins were purified from the remaining free ¹²⁵I using PD-10 columns (Pharmacia, Uppsala, Sweden) equilibrated in Hank's Balanced Salt Solution (HBSS, Life Technologies, Grand Island, N.Y.) containing 0.2% gelatin.
(§2) Antibody affinities were determined by saturation binding using either peripheral blood mononuclear cells (murine MHM24 and HuIgG1) or rhesus leukocytes (MHM23, RhIgG1). In each assay, a radiolabeled antibody was serially diluted in HBSS-0.2% gelatin in quadruplicate. Nonspecific binding was determined by the addition of 500 nM final concentration of homologous unlabeled antibody in duplicate through the serial dilution. Human lymphocytes or rhesus leukocytes were added to the plates in a volume of 170 μl per well. Plates were incubated for 2 hr at room temperature on an orbital plate shaker. After incubation, cells were harvested using a SKATRON™ cell harvester (Lier, Norway) and washed 10 times with PBS containing 0.25% gelatin and 0.1% sodium azide. Samples were then counted for 1 min in an LBK Wallac GammaMaster gamma counter (Gaithersburg, Md.). […]

[6] = molecular target: T1, human CD11a; assay: not stated (summary of the Example)
[7] = molecular target: T1, human CD11a; assay: FACScan, Jurkat cells; remark: listed apart in the source
Method: (§3) Aliquots of 10⁶ Jurkat T-cells were incubated with serial dilutions of humanized and control antibodies in PBS-0.1% BSA-10 mM sodium azide for 45 min at 4° C. The cells were washed and then incubated in fluorescein-conjugated goat anti-human F(ab′)₂ (Organon Teknika, Westchester, Pa.) for 45 min at 4° C. Cells were washed and analysed on a FACScan (Becton Dickinson, Mountain View, Calif.). 8×10³ cells were acquired by list mode and gated by forward light scatter versus side light scatter, thereby excluding dead cells and debris.
To determine which CDR residues were involved in binding to human CD11a an alanine-scan (Cunningham et al., Science 244:1081 (1989)) was performed on the CDR residues of HuIgG1. Each mutant was tested for binding to CD11a on Jurkat cells. In the light chain only CDR-L3 contributes to binding.

[8] = molecular target: T1, human CD11a; assay: saturation binding, human lymphocytes, donor 1; Kd(app)
Method: as §1, §2

[9] = molecular target: T2, rhesus CD11a; assay: binding to rhesus peripheral blood lymphocytes
[10] = molecular target: T1, human CD11a; assay: FACScan, Jurkat cells; remark: listed apart in the source
Method: as §3
Target sequence in this assay (P20701 26-1170): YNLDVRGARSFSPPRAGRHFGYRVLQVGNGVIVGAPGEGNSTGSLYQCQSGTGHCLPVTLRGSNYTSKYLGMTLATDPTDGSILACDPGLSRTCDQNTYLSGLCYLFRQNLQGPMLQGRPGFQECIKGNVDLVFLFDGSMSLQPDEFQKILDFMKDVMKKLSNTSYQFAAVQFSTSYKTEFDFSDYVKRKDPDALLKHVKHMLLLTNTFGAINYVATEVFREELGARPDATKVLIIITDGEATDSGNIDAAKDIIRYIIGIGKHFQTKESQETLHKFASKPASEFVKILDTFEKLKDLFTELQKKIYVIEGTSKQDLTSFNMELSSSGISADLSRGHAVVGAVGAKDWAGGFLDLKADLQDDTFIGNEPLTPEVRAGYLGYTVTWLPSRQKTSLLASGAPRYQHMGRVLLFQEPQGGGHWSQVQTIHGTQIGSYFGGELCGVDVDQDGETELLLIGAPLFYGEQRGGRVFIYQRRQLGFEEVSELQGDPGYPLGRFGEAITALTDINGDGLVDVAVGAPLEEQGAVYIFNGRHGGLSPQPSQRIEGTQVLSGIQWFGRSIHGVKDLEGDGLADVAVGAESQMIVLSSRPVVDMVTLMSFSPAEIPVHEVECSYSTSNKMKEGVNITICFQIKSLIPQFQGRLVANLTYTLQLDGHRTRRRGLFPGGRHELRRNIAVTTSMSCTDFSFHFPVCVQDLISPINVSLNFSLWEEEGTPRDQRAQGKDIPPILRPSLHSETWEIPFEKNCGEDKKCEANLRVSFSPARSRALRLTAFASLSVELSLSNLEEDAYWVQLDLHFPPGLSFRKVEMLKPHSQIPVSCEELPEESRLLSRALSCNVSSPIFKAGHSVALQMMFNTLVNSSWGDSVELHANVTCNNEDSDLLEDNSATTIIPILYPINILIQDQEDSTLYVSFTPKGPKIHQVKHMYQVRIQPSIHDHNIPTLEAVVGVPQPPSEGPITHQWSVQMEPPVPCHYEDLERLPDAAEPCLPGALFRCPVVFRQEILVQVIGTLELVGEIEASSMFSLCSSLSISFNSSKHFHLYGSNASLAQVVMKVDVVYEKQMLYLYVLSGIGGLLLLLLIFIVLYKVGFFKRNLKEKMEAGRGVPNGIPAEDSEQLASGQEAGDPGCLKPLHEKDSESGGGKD

[11] = molecular target: T1, human CD11a; assay: saturation binding, 125I-antibody, human lymphocytes; Kd(app)
Method: as §1, §2

[12] = molecular target: T1, human CD11a; assay: cell-based or functional assay; remark: listed apart in the source
[13] = molecular target: T2, rhesus CD11a; assay: rhesus PBL binding; end of range assigned by the printed EC50s
[14] = molecular target: T2, rhesus CD11a; assay: saturation binding, rhesus leukocytes, donor 1; Kd(app)
Method: as §1
Leukocytes were purified from heparinized rhesus monkey peripheral blood collected from two individuals by Dextran sedimentation. Blood was diluted with an equal volume of 3% Dextran T500 (Pharmacia) in PBS and was allowed to sediment undisturbed at 25° C. for 30 min. After sedimentation, cells remaining in suspension were harvested and pelleted by centrifugation at 400×g for 5 min. Residual erythrocytes were removed by two cycles of hypotonic lysis using distilled water and 2×HBSS. […]
Antibody affinities were determined by saturation binding using either peripheral blood mononuclear cells (murine MHM24 and HuIgG1) or rhesus leukocytes (MHM23, RhIgG1). […] Nonspecific binding was determined by the addition of 500 nM final concentration of homologous unlabeled antibody in duplicate through the serial dilution. […] Samples were then counted for 1 min in an LBK Wallac GammaMaster gamma counter (Gaithersburg, Md.). […]

[15] = molecular target: T3, rhesus-human chimeric CD11a (human (I-domain mutated to rhesus), UniProt P20701 26-1170); assay: cell-based or functional assay
T3 sequence (looked up): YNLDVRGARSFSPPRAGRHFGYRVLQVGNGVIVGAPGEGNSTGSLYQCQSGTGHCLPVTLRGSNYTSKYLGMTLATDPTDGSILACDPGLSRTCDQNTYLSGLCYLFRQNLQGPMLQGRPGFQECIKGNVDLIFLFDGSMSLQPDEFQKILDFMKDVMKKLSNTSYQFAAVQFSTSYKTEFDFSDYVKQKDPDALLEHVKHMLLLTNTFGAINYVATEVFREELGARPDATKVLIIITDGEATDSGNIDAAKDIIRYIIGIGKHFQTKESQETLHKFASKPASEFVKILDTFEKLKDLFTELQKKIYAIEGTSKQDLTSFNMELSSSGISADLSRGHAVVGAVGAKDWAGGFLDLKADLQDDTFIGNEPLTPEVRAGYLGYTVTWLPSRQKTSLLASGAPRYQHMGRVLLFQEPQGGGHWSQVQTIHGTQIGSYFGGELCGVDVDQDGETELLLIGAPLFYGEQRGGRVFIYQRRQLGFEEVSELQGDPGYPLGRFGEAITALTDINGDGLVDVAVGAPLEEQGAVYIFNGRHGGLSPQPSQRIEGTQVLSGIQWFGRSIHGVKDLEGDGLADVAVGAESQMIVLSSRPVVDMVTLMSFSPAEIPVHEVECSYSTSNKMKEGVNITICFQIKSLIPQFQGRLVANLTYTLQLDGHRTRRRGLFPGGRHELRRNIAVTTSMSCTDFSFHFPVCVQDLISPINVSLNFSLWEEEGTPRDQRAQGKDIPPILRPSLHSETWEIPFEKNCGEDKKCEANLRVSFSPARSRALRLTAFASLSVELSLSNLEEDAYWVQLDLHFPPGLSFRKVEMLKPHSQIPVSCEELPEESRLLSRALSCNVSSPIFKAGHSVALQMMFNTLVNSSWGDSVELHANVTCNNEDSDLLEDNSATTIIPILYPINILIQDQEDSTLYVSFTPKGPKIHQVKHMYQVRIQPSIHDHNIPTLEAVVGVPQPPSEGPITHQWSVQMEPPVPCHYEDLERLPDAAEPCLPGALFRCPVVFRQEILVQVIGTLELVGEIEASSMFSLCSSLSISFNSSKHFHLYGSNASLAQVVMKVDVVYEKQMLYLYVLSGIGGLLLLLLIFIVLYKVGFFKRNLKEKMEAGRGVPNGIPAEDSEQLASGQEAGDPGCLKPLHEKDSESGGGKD

[16] = molecular target: T2, rhesus CD11a; assay: cell-based or functional assay
[17] = molecular target: T2, rhesus CD11a; assay: saturation binding
Method: Antibody affinities were determined by saturation binding using either peripheral blood mononuclear cells (murine MHM24 and HuIgG1) or rhesus leukocytes (MHM23, RhIgG1). In each assay, a radiolabeled antibody was serially diluted in HBSS-0.2% gelatin in quadruplicate. Nonspecific binding was determined by the addition of 500 nM final concentration of homologous unlabeled antibody in duplicate through the serial dilution. Human lymphocytes or rhesus leukocytes were added to the plates in a volume of 170 μl per well. Plates were incubated for 2 hr at room temperature on an orbital plate shaker. After incubation, cells were harvested using a SKATRON™ cell harvester (Lier, Norway) and washed 10 times with PBS containing 0.25% gelatin and 0.1% sodium azide. Samples were then counted for 1 min in an LBK Wallac GammaMaster gamma counter (Gaithersburg, Md.). Data was transformed from counts per minute to nanomolarity and four-parameter curve-fitting of saturation plots (bound versus total) was then performed to determine Kd (app) values.

[18] = molecular target: T2, rhesus CD11a; assay: rhesus PBL binding; remark: listed apart in the source
[19] = molecular target: T3, rhesus-human chimeric CD11a; assay: cell-based or functional assay; remark: listed apart in the source
[20] = molecular target: T2, rhesus CD11a; assay: cell-based or functional assay; remark: listed apart in the source
[21] = molecular target: T2, rhesus CD11a; assay: cell-based or functional assay; remark: listed apart in the source
[22] = molecular target: T2, rhesus CD11a; assay: saturation binding, rhesus leukocytes, donor 3, with 1 mg/ml human IgG1; Kd(app)
Method: Leukocytes were purified from heparinized rhesus monkey peripheral blood collected from two individuals by Dextran sedimentation. Blood was diluted with an equal volume of 3% Dextran T500 (Pharmacia) in PBS and was allowed to sediment undisturbed at 25° C. for 30 min. After sedimentation, cells remaining in suspension were harvested and pelleted by centrifugation at 400×g for 5 min. Residual erythrocytes were removed by two cycles of hypotonic lysis using distilled water and 2×HBSS. After erythrocyte lysis, cells were washed in PBS and then resuspended in HBSS-0.2% gelatin.
as §2, with “After incubation, cells were harvested using a SKATRON™ cell harvester (Lier, Norway) and washed 10 times with PBS containing 0.25% gelatin and 0.1% sodium azide.” left out

B1: humanized MHM24 IgG1 (antibody, V domains shown)
VH: EVQLVESGGGLVQPGGSLRLSCAASGYSFTGHWMNWVRQAPGKGLEWVGMIHPSDSETRYNQKFKDRFTISVDKSKNTLYLQMNSLRAEDTAVYYCARGIYFYGTTYFDYWGQGTLVTVSS
VL: DIQMTQSPSSLSASVGDRVTITCRASKTISKYLAWYQQKPGKAPKLLIYSGSTLQSGVPSRFSGSGSGTDFTLTISSLQPEDFATYYCQQHNEYPLTFGQGTKVEIKR
notes: F(ab)-8 VL and VH domains fused to human constant light and heavy (IgG1) chains; also called HuIgG1; huMHM24
EC50 [1]: 0.042 nM
IC50, blocking of cell adhesion, Jurkat: HuK [2]: 0.13 nM
fold reduction in binding against human CD11a [3]: ~1000 fold
Var.EC50/HuIgG1 EC50 [4]: 1 ratio
Kd [5]: 0.18 nM
Kd [6]: 0.2 nM
Var.EC50/HuIgG1 EC50 [7]: 1 ratio
Kd [8]: 0.11 nM
EC50 [9]: 45.6 nM
EC50 F(ab)/EC50 F(ab)-2 [10]: 0.004 ratio
Kd [11]: 0.15 nM
IC50, human mixed lymphocyte response [12]: 0.38 nM

B2: rhesus-binding MHM24 IgG1 (antibody, V domains shown)
VH: EVQLVESGGGLVQPGGSLRLSCAASGYSFTGHWMNWVRQAPGKGLEWVGMIAPASSSTRYNQKFKDRFTISVDKSKNTLYLQMNSLRAEDTAVYYCARGIYFYGTTYFDYWGQGTLVTVSS
VL: DIQMTQSPSSLSASVGDRVTITCRASKTISKYLAWYQQKPGKAPKLLIYSGSTLQSGVPSRFSGSGSGTDFTLTISSLQPEDFATYYCQQHNEYPLTFGQGTKVEIKR
notes: HuIgG1 mutant (H52 Ala, H53 Ala, H54 Ser, H56 Ser); human IgG1; also called RhIgG1; H2C12
fold improvement over EC50 of HuIgG1 for rhesus CD11a [13]: 240 to 415 fold
fold weaker than EC50 of HuIgG1 for human CD11a [13]: 3 to 5 fold
Kd [14]: 3.9 nM
IC50, blocking of cell adhesion, Rh/HuCD11a: HuK [15]: 4.9 nM
IC50, blocking of cell adhesion, RhLy: HuICAM [16]: 5.3 nM
IC50, blocking of cell adhesion, RhLy: HuK [16]: 119 nM
Var.EC50/HuIgG1 EC50 [4]: 0.004 ratio
fold Kd against Kd of HuIgG1 for human CD11a [17]: ~26 fold
EC50 [18]: 0.19 nM
fold down from MHM23, Rh/HuCD11a-293: HuK adhesion [19]: 4 fold
fold less efficacious than MHM23, RhLy: HuICAM adhesion [20]: 4 fold
fold less efficacious than MHM23, RhLy: HuK adhesion [20]: 74 fold
IC50, rhesus mixed lymphocyte response [21]: 23.4 nM
Kd [22]: 2.8 nM and 2.7 nM
